# Experimental data published in patent US20250042944A1 (NATIONAL MARINE BIODIVERSITY INSTITUTE OF KOREA, published 2025).
# Bridges are numbered along the chain shown (N, C = ends). Where no end group is shown, it is not given here.
# T1: recombinant human vasopressin V1B receptor (human, UniProt P47901 1-424)
# T1 sequence (looked up): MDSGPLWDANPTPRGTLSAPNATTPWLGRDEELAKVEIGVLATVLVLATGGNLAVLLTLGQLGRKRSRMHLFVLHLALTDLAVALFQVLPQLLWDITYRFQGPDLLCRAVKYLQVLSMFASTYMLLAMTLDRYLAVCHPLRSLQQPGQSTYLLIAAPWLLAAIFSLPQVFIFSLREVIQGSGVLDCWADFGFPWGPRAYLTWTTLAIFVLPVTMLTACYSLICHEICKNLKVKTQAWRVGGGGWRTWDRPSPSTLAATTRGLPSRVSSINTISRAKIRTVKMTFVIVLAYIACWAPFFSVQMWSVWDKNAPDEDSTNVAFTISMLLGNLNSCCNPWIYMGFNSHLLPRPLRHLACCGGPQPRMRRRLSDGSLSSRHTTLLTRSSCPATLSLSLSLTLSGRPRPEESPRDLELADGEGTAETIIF
# T2: recombinant human oxytocin receptor (human, UniProt P30559 1-389)
# T2 sequence (looked up): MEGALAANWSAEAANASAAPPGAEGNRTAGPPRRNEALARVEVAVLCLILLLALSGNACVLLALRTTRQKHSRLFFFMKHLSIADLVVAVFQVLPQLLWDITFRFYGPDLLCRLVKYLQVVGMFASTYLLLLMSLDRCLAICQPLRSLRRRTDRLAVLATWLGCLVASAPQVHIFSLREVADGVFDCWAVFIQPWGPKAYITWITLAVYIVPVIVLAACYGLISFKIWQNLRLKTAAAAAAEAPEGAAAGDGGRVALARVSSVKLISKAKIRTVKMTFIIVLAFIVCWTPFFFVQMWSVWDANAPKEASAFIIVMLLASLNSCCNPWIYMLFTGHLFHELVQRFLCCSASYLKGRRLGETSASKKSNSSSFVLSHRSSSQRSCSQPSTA
# What was measured:
# Test in all cases: cell-based or functional assay
# [1] = target: recombinant human vasopressin V2 receptor (human, UniProt P30518 1-371)
# [2] = target: T1, recombinant human vasopressin V1B …
# [3] = target: T2, recombinant human oxytocin receptor
binder,measurement,setting,value
CYFRNCPAG-NH2 (disulfide 1-6; N-terminus assumed; SMILES C[C@H](NC(=O)[C@@H]1CCCN1C(=O)[C@@H]1CSSC[C@H](N)C(=O)N[C@@H](Cc2ccc(O)cc2)C(=O)N[C@@H](Cc2ccccc2)C(=O)N[C@@H](CCCNC(=N)N)C(=O)N[C@@H](CC(N)=O)C(=O)N1)C(=O)NCC(N)=O) [Squidtocin],"EC50 of receptor activation (intracellular cAMP accumulation, HTRF, CHO cells)",[1],42 nM
same,"EC50 of receptor activation (intracellular calcium increase, calcium dye fluorescence imaging, RBL cells)",[2],0.94 nM
CFFRNCPPG-NH2 (disulfide 1-6; N-terminus assumed; SMILES N=C(N)NCCC[C@@H]1NC(=O)[C@H](Cc2ccccc2)NC(=O)[C@H](Cc2ccccc2)NC(=O)[C@@H](N)CSSC[C@@H](C(=O)N2CCC[C@H]2C(=O)N2CCC[C@H]2C(=O)NCC(N)=O)NC(=O)[C@H](CC(N)=O)NC1=O) [Pro-sepiatocin],"IC50 of receptor inhibition (calcium response to 30 nM oxytocin, calcium dye fluorescence imaging, ECV304 cells)",[3],16000 nM
same,"EC50 of receptor activation (intracellular calcium increase, calcium dye fluorescence imaging, RBL cells)",[2],214 nM
